Consider one protein from publication PMC8989918, “SH3-domain mutations selectively disrupt Csk homodimerization or PTPN22 binding” (Scientific Reports, 2022).

The series concerns the molecule itself. As to the kind of experiment: SEC; 1 ml (20 mg, 400 µM) purified Csk loaded onto a HiLoad 16/60 Superdex 200 column; apparent molecular weight from partition coefficients of standard proteins. A general note: SEC sorts molecules by how far they enter the pores of the column.

B1: purified recombinant Csk WT (natural protein, mouse, UniProt P41241 1-450, looked up)
chain: MSAIQAAWPSGTECIAKYNFHGTAEQDLPFCKGDVLTIVAVTKDPNWYKAKNKVGREGIIPANYVQKREGVKAGTKLSLMPWFHGKITREQAERLLYPPETGLFLVRESTNYPGDYTLCVSCEGKVEHYRIMYHASKLSIDEEVYFENLMQLVEHYTTDADGLCTRLIKPKVMEGTVAAQDEFYRSGWALNMKELKLLQTIGKGEFGDVMLGDYRGNKVAVKCIKNDATAQAFLAEASVMTQLRHSNLVQLLGVIVEEKGGLYIVTEYMAKGSLVDYLRSRGRSVLGGDCLLKFSLDVCEAMEYLEGNNFVHRDLAARNVLVSEDNVAKVSDFGLTKEASSTQDTGKLPVKWTAPEALREKKFSTKSDVWSFGILLWEIYSFGRVPYPRIPLKDVVPRVEKGYKMDAPDGCPPAVYEVMKNCWHLDAATRPTFLQLREQLEHIKTHELHL
notes: Csk, tyrosine-protein kinase, mouse, full length (50.6 kDa), from pGEX-6P-3; also called WT Csk; full-length Csk; source: E. coli BL21(DE3), purified (GST Gravitrap, PreScission cleavage, HiTrap Q, Superdex 200); not shown: GST, N-terminal, cleaved
Consider B1, for which the binding result is on record as “binds”.
